Assay [1] has as its target T1, Rat brain HK-I (hexokinase-I), purified (rat, UniProt P05708 1-918).
T1 construct: Purified from rat brain; Used in the planar lipid bilayer and isolated-mitochondria assays
T1 sequence (looked up): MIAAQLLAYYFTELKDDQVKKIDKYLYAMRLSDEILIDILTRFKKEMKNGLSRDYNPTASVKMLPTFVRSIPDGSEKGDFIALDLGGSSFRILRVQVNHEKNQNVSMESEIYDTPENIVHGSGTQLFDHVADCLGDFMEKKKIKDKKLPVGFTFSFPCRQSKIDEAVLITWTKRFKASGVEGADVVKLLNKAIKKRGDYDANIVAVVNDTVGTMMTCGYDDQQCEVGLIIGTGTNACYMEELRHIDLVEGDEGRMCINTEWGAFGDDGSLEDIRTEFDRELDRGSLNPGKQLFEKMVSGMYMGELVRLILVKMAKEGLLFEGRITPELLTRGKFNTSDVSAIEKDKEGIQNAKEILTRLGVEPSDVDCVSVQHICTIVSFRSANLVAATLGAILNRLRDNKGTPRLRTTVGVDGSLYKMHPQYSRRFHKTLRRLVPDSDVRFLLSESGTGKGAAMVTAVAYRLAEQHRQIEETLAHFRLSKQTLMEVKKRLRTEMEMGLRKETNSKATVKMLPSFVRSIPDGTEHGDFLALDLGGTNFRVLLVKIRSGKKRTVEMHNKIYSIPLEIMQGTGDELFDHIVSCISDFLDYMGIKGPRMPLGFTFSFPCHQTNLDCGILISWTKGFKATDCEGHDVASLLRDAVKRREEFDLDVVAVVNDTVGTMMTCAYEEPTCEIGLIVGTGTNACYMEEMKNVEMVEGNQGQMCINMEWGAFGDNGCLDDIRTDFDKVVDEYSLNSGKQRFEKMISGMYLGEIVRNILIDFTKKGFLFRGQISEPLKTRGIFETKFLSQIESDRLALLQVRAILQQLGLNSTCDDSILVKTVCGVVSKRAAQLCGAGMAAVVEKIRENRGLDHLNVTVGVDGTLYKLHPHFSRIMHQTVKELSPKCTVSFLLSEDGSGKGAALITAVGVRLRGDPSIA
In words: purified proteins, VDAC1 reconstituted into a planar lipid bilayer, channel recording. The procedure:
Only PLBs with a resistance greater than 100 GΩ were used. Purified VDAC (about 1 ng) was added to the chamber defined as the cis side. […] Sigma Plot 2000 scientific software was used for data analyses. Experiments were performed at 23-25° C.

The target in assay [2] is T1, Rat brain HK-I (hexokinase-I), purified. The assay is described as follows: detachment of HK-I from rat brain mitochondria by the peptide (competition); HK-I activity in the supernatant.

B1: native mVDAC1 (mouse VDAC1), purified recombinant (other)
chain: MAVPPTYADLGKSARDVFTKGYGFGLIKLDLKTKSENGLEFTSSGSANTETTKVNGSLETKYRWTEYGLTFTEKWNTDNTLGTEITVEDQLARGLKLTFDSSFSPNTGKKNAKIKTGYKREHINLGCDVDFDIAGPSIRGALVLGYEGWLAGYQMNFETSKSRVTQSNFAVGYKTDEFQLHTNVNDGTEFGGSIYQKVNKKLETAVNLAWTAGNSNTRFGIAAKYQVDPDACFSAKVNNSSLIGLGYTQTLKPGIKLTLSALLDGKNVNAGGHKLGLGLEFQA
notes: Extracted from mitochondria of yeast expressing mVDAC1, purified and reconstituted into a planar lipid bilayer; also called native VDAC1
Consider B1, for which the binding result in assay [1] is reported as “binds”.

B2: Peptide LP1 (VDAC1 loop 1 peptide) (peptide)
peptide: WTEYGLTFTEKWNTD
notes: No CPP or Trp zipper in these assays; also called LP1 peptide
As for B2, in assay [2], the binding result was “binds”.

The record behind these values is patent publication US20120214741A1 (BEN GURION UNIVERSITY OF THE NEGEV RESEARCH AND DEVELOPMENT …, published 2012).
